In US20070134236A1 (Biogen, published 2007):

T1: human fractalkine (human, UniProt P78423 25-100, limits assumed)
T1 sequence (looked up): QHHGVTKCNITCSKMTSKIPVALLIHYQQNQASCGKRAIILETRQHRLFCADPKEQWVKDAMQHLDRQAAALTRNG

T2: human DC-CK (human, UniProt P55774 21-89)
T2 sequence (looked up): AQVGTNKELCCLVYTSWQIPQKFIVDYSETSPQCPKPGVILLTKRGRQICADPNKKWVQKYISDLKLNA

T3: human MCP-2 (human, UniProt P80075 24-99)
T3 construct: also called hMCP-2; huMCP-2
T3 sequence (looked up): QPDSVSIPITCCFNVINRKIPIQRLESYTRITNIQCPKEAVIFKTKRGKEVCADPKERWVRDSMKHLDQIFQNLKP


Legend:
human fractalkine = target: T1, human fractalkine; assay: ELISA, supernatant
Method: (§1) MaxiSorp 384 well plates were coated with 15-20 μl antigen in PBS. Recombinant purified human antigens included: MCP-1, MCP-2, MCP-3, MCP-4, IL-8, eotaxin, fractalkine, Gcp-2, DC-CK (Gcp-2 and DC-CK are also chemokines). Plates were incubated with antigen for 2 hours at 37° C. or overnight at 4° C. Non-specific sites were blocked with 80 μl/well of 1% BSA/PBS for 1 hour at room temperature. Plates were washed and 15 μl of hybridoma supernatant was added to each well and incubated for 1 hour at room temperature. Plates were washed and wells were incubated with 20 μl/well of a 1:25 000 dilution of goat anti-mouse IgG peroxidase conjugate (Jackson Catalog Number 515-036-003). Plates were incubated for 1 hour at room temperature, washed, and 20 μl/well of substrate (TMB, tetramethylbenzidine, Jackson, Catalog Number 515-036-062) was added. Reaction was allowed to proceed and stopped by addition of 20 μl/well of 2M H₂SO₄. Reactive clones were picked for further analysis. Isotyping of hybridoma supernatants was performed by antigen-dependent ELISA. Briefly, wells were coated with 50 μl of human MCP-1 (5 μg/ml) for 1 hour at 37° C. Wells were washed 4 times and blocked with PBS/1% BSA. Isotyping of hybridoma supernatants was then performed using a mouse immunoglobulin screening/isotyping kit (Zymed Laboratories, San Francisco, —CA) as recommended by the manufacturer.

human Gcp-2 = human Gcp-2 (human, UniProt P80162 38-114, limits assumed); assay: ELISA, supernatant
Method: as §1

human DC-CK = target: T2, human DC-CK; assay: ELISA, supernatant
Method: as §1

human MCP-4 = target: T4, human MCP-4 (human, UniProt Q99616 24-98, limits assumed); assay: ELISA, purified mAb
T4 construct: also called hMCP-4
Method: (§2) ELISA specificity assays were performed using purified monoclonal antibodies to confirm the binding specificities of the supernatant MCP-specific monoclonal antibodies described above. Antibodies were purified by Protein A affinity column chromatography, according to standard methods known in the art.
(§3) ELISA was performed as previously described in Example 1. Briefly, MaxiSorp 384 well plates were coated with 15-20 μl antigen in PBS. Recombinant purified human antigens included: MCP-1, MCP-2, MCP-3, MCP-4, IL-8, eotaxin, murine MCP-1 (JE), murine MCP-3, murine MCP-5, and rat MCP-1. All antigens, including MCP-3, were immobilized. Plates were washed and purified monoclonal antibody (10 μg/ml) was added to each well and incubated for 1 hour at room temperature. Plates were washed and wells were incubated with 20 μl/well of a 1:25,000 dilution of goat anti-mouse IgG peroxidase conjugate (Jackson Catalog Number 515-036-003). Plates were incubated for 1 hour at room temperature, washed, and 20 μl/well of substrate (, tetramethylbenzidine, Jackson, Catalog Number 515-036-062) was added. Reaction was allowed to proceed and stopped by addition of 20 μl/well of 2M H₂SO₄. Antibodies 1A1 bound specifically to hMCP-1, hMCP-2, hMCP-3, and mMCP-1. Antibodies 11K2, 4N4, 5A13, 6D21, 615, and 7H1 bound specifically to hMCP-1, hMCP-2, hMCP-3, mMCP-1, mMCP-3, and mMCP-5.

human IL-8 = target: T5, human IL-8 (human, UniProt P10145 28-99, limits assumed); assay: ELISA, purified mAb
T5 construct: also called hIL8
Method: as §2, §3

human eotaxin = target: T6, human eotaxin (human, UniProt P51671 24-97); assay: ELISA, purified mAb
T6 construct: also called hEotaxin
Method: as §2, §3

human MCP-1 [1] = target: T7, human MCP-1 (human, UniProt P13500 24-99); assay: KinExA, in solution
T7 construct: also called hMCP-1; huMCP-1
Method: (§4) Polymethylmethacrylate beads activated with NHS were coated with 10 μg recombinant human MCP-1 in 1 ml buffer. The beads were packed into a column in the KinExA instrument for each sample. This packed bead column is able to capture free MCP mAb or Fab flowed through the column. The amount of free mAb or Fab in solution was determined using a secondary goat anti-mouse heavy and light chain IgG-Cy5 conjugate.
(§5) A fixed amount of 11K2 mAb, 1A1 mAb, 11K2 Fab, or 1A1 Fab was incubated with various amounts of human MCP-1, MCP-2 or MCP-3 for three hours. The amount of uncomplexed free antibody remaining in solution was determined by flowing these mixtures over the MCP-1-loaded bead column and labeling with the Cy5 secondary antibody. The fluorescent signal was plotted against the MCP concentration and the affinity was determined using a quadratic curve fit

human MCP-2 [2] = target: T3, human MCP-2; assay: KinExA, in solution; intact bivalent mAb, not Fab
Method: as §4, §5

human MCP-1 [3] = target: T7, human MCP-1; assay: KinExA, in solution, Fab
Method: (§6) 1 ml of MCP-1 at a concentration of 10 μg/ml in NaHCO₃ was added to an amount of beads equivalent to 1 ml of the original slurry. The beads were rocked overnight at 4° C. Beads were spun down and washed once with 1M Tris, pH 8.0, then resuspended in 1M Tris pH 8.0 with 1% BSA, 0.02% azide. The beads were rocked at room temperature for one hour then stored at 4° C. in this buffer for the duration of the experiments.
(§7) The KinExA 3000 measures protein-protein interaction in solution, and is ideally suited for measuring affinities of antibodies to antigens. In the typical experiment, antigen (MCP) is immobilized on a bead, antibody is flowed over a column of these beads at a given concentration, and the antibody that binds to the beads is detected using a fluorescent secondary. Antibody at a fixed concentration is then incubated with different concentrations of antigen in solution and the amount of free antibody is measured by flowing the mixture over the bead column quickly enough that no re-equilibration occurs between solution and solid phase. The amount of antibody remaining free is plotted against the concentration of antigen added and the data are fit to a quadratic equation to determine the affinity of the interaction in solution.
(§8) In these experiments, the only difference to the typical experiment described above is that instead of using intact antibody, a Fab fragment of 11K2 was used. Earlier KimExA experiments using the intact murine 11K2 mAb binding to MCP-1 and MCP-2 gave biphasic curves that the software could not interpret. This may be due to these proteins acting as dimers, so to eliminate the dimer/dimer interaction we generated Fab fragments. The binding of the 11K2 Fab fragments to MCP-1 and MCP-2 produced curves that the KinExA software could fit.

human MCP-2 [4] = target: T3, human MCP-2; assay: KinExA, in solution, Fab
Method: as §6, §7, §8

human MCP-2 [5] = target: T3, human MCP-2; assay: KinExA, in solution; Fab, not intact mAb
human MCP-3 = target: T8, human MCP-3 (human, UniProt P80098 24-99); assay: ELISA
T8 construct: also called hMCP-3

human MCP-2 [6] = target: T3, human MCP-2; assay: ELISA on immobilised MCP-2, absorbance 450 nm
human MCP-1 [7] = target: T7, human MCP-1; assay: ELISA on plate-coated human MCP-1, anti-human IgG-HRP; y axis unlabelled, OD 405 nm per paragraph 382
Method: (§9) Binding specificities of chimeric 11K2 and the four versions of humanized 11K2 (H1-L1, H1-L2, H2-L1, and H2-L2) were determined by ELISA, according to the protocol described in Example 1.
(§10) ELISA plates (Corning, Inc. Cat#3369) were coated with 50 ng MCP-1 per well overnight at 4° C. Plates were washed then blocked with PBS/5% milk for 1.5 hrs at 25° C. Another wash was followed by incubation with the 11K2 mAbs (or 3G9 isotype control) at the concentrations indicated for 1 hr at 25° C. After washing, the plates were incubated with secondary antibody (anti-human IgG-HRP, Jackson Immunoresearch Cat#109-036-088) for 1 hr at 25° C. Plates were then washed and developed using the ABTS Peroxidase Substrate Kit (Vector Laboratories Cat#SK-4500). OD (405 nm) values were plotted as a function of 11K2 mAb concentration.

murine MCP-1 (JE) = target: T9, murine MCP-1 (JE) (mouse, UniProt P10148 24-148); assay: ELISA on plate-coated murine MCP-1, anti-human IgG-HRP; y axis unlabelled, OD 405 nm per paragraph 382
T9 construct: also called mMCP-1 (JE); muMCP-1
Method: as §9, §10

human MCP-2 [8] = target: T3, human MCP-2; assay: KinExA, in solution
Method: as §4, §5

Binder	binding result (human fractalkine)	binding result (human Gcp-2)	binding result (human DC-CK)	binding result (human MCP-4)	binding result (human IL-8)	binding result (human eotaxin)	Kd (human MCP-1 [1])	binding result (human MCP-3)	EC50 (read off the curve) (human MCP-2 [6])	EC50 (read off the curve) (human MCP-1 [7])	binding result (murine MCP-1 (JE))	further results
mouse monoclonal antibody 1A1 (antibody, V domains shown, mouse IgG1; also called 1A1.1; mu1A1) VH: EVQLQQSGAELVRSGASVKLSCTASGFNIKDNYMHWVKQRPEQGLEWIGWIDPENGDTEYAPKFQGKATMTADTSSNTAYLQLSSLTSEDTAVYYCNTWAYYGTSYGGFAYWGQGTTVTVSS VL: not shown	no binding	no binding	no binding	no binding (tested: 10 µg/ml)	no binding (tested: 10 µg/ml)	no binding (tested: 10 µg/ml)	< 0.0007 nM					Kd (human MCP-2 [2]): 0.0012 nM
Fab fragment of murine 1A1 (Fab, V domains shown, also called 1A1 Fab) VH: EVQLQQSGAELVRSGASVKLSCTASGFNIKDNYMHWVKQRPEQGLEWIGWIDPENGDTEYAPKFQGKATMTADTSSNTAYLQLSSLTSEDTAVYYCNTWAYYGTSYGGFAYWGQGTTVTVSS VL: not shown							0.013 nM					Kd (human MCP-1 [3]): 0.0129 nM; Kd (human MCP-2 [4]): 0.32 nM; Kd (human MCP-2 [5]): 0.32 nM
humanized 11K2 H1-L1 (antibody, human IgG1, kappa, V domains shown, human IgG1 kappa; also called hu11K2) VH: QVQLVQSGAEVKKPGSSVKVSCKASGLNIKDTYMHWVRQAPGQGLEWIGRIDPANGNTKFDPKFQGRATITADTSTSTAYMELSSLRSEDTAVYYCARGVFGFFDYWGQGTTVTVSS VL: DIQMTQSPSSLSASVGDRVTITCKATEDIYNRLAWYQQKPGKAPKLLISGATSLETGVPSRFSGSGSGKDYTLTISSLQPEDFATYYCQQFWSAPYTFGGGTKVEIKR								no binding	~0.3 µg/mL	~0.02 µg/mL	binds	
humanized 11K2 H2-L1 (antibody, human IgG1, kappa, V domains shown, human IgG1 kappa) VH: QVQLVQSGAEVKKPGSSVKVSCKASGLTISDTYMHWVRQAPGQGLEWMGRIDPANGNTKFDPKFQGRVTITADTSTSTAYMELSSLRSEDTAVYYCARGVFGFFDYWGQGTTVTVSS VL: DIQMTQSPSSLSASVGDRVTITCKATEDIYNRLAWYQQKPGKAPKLLISGATSLETGVPSRFSGSGSGKDYTLTISSLQPEDFATYYCQQFWSAPYTFGGGTKVEIKR								no binding	~0.2 µg/mL	~0.02 µg/mL	binds	
chimeric 11K2 antibody (antibody, human IgG1, kappa, V domains shown, murine 11K2 variable domains with human IgG1 and kappa constant regions; also called Chimera; ch11K2) VH: EVQLQQSGAELVKAGASVKLSCPASGLNIKDTYMHWVKQRPEQGLEWIGRIDPANGNTKFDPKFQGKATITADTSSNTAYLQLSSLTSEDTAVYYCARGVFGFFDYWGQGTTLTVSS VL: DIQMTQSSSSFSVSLGDRVTITCKATEDIYNRLAWYQQKPGSAPRLLISGATSLETGVPSRFSGSGSGKDYTLSITSLQTEDVATYYCQQFWSAPYTFGGGTKLEIKR										~0.02 µg/mL		EC50 (read off the curve) (murine MCP-1 (JE)): ~0.02 µg/mL
mouse monoclonal antibody 11K2 (antibody, V domains shown, mouse IgG1; also called 11K2.1; mu11K2) VH: EVQLQQSGAELVKAGASVKLSCPASGLNIKDTYMHWVKQRPEQGLEWIGRIDPANGNTKFDPKFQGKATITADTSSNTAYLQLSSLTSEDTAVYYCARGVFGFFDYWGQGTTLTVSS VL: DIQMTQSSSSFSVSLGDRVTITCKATEDIYNRLAWYQQKPGSAPRLLISGATSLETGVPSRFSGSGSGKDYTLSITSLQTEDVATYYCQQFWSAPYTFGGGTKLEIK	no binding	no binding	no binding	no binding (tested: 10 µg/ml)	no binding (tested: 10 µg/ml)	no binding (tested: 10 µg/ml)	< 0.0004 nM					Kd (human MCP-2 [8]): 0.018 nM
